From the supplement of paper PMC9170038

Columns and labels:
[1] = test system: MS2 coat protein; test: apparent KD of MS2 coat protein, switch ON state; designed switch direction (-1 OFF switch, 1 ON switch): 1; higher = weaker reporter binding; details: FMN input: 0 or 200 uM; Eterna round: R93 (includes R88 designs)
Method in brief: (§1)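 With or without constant ligand, designed RNA switches in 100 mM Tris-HCl pH 7.5, 80 mM KCl and 4 mM MgCl2 were titrated with SNAP-549-labelled MS2 coat protein. Concentrations went up in twofold steps from 0.7 or 1.5 nM to 3 µM. The switches had been transcribed on-chip from Illumina sequencing clusters, and apparent KD is the per-design median of normalised cluster binding-curve fits.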

[2] = test system: MS2 coat protein; test: apparent KD of MS2 coat protein, switch OFF state (with FMN for OFF switches, without FMN for ON switches); designed switch direction (-1 OFF switch, 1 ON switch): 1; higher = weaker reporter binding; details: FMN input: 0 or 200 uM; Eterna round: R93 (includes R88 designs)
Method in brief: as §1

| Sequence | apparent KD of MS2 coat protein [1] | apparent KD of MS2 coat protein [2] |
| --- | --- | --- |
| GAAAAACAUGAGGAUCACCCAUGUAGAAAUAUGGAAGGAUAUACGAAGACGAAAGUCAAAGUAGAAGGUCUAAAAG [Garnet 96] | 17 nM | 19.5 nM |
| GAAAAACAUGAGGAUCACCCAUGUGGAAAUAUGGGAGGAUAUACUAUGACGAAAGUCAAAGUAGAAGGCCUGAUAG [JL S1 M-MoE mod 5 In the Read] | 24.7 nM | 124 nM |
| GAAAAACAUGAGGAUCACCCAUGUAAGAUAAACACAGGAUAUGCGAAAAGAAAGAAAGAAGCAGAAGGGUGAAGAA [Mat - Same State 1 - Tesla mod - 40] | 12.3 nM | 33.7 nM |
| GAAAAACAUGAGGAUCACCCAUGUGUAAAUAUGGAAGGAUAUACAAAGACGAAAGUCAAAGUAGAAGGUCUAAAAG [Mat - Same State 1 - Eli mod - D16] | 23.5 nM | 28.9 nM |
| AUAUAUAUAAGGUAGGAUAUGCUAAAGUAAACAUGAGGAUCACCCAUGUAAAGAAAGAAACUCAUGUAGAAGGGCCAUAUAUAUA [viburnum 6] | 163 nM | 408 nM |
| GCAGGGCUAAACUAGGAUAUGGGUGUCUAGACAUGAGGAUCACCCAUGUGAUGGCAAAACAAAGCUCAGAAGGAGUGGUAGCCCA [Quendi] | 11.9 nM | 75.4 nM |
| AAAGAAAAACUAGAGGAUAUCCGAGUGGUAACAUGAGGAUCACCCAUGUGAAGAAAGGAACAUAUGGAGAAGGCUAGAAGAAAAA [JL Nando Mod 4] | 63.5 nM | 438 nM |
| GGGAAUAAAAGAGAGGAUAUCCAAAGGAAAACAUGAGGAUCACCCAUGUAAAAGGAAGGAAAUUGGGAGAAGGCUCAAGAUAGGG [salish99-ss2-012] | 29.4 nM | 26.1 nM |
| ACAAAACAUGAGGAUCACCCAUGUGAGAACAUGAAAGGAUAUACUAGGACGAGAGUCAAUGUAGAAGGUUCUAGAA [SS - 1] | 34.6 nM | 39 nM |
| AGAAAUAAAAGACAGGAUAUCCAAAAGAAAACAUGAGGAUCACCCAUGUAAAAGAAAAUAAAAUGGGAGAAGGGUCAAAAUAAAG [Topaz 2] | 11 nM | 36.6 nM |
| AAGAAACAUGAGGAUCACCCAUGUGAUAAUAUGGGAGGAUAUACAAGGACGUAAGUCAAGGUAGAAGGCCUAAGAA [Mat - Same State 1 - Meechl mod - D140] | 30.5 nM | 61.6 nM |
| AAAAAACAUGAGGAUCACCCAUGUAAAAAUAUGGAAGGAUAUGGAAACACGAAAGUGAAACCAGAAGGUCUAAAAG [77%, Mat - Mod of Eli, 10] | 17.1 nM | 21.3 nM |
| AAGAAACAUGAGGAUCACCCAUGUAAAUUCGAGAGAGGAUAUCGUACAUGGAAGAUUCAACGAGAAGGCUCUAGAA [Same State 1.1 (Pariah 3, G boost at 31)] | 21 nM | 79.6 nM |
| AGAAUAAAAAGACAGGAUAUCCAAAAGAAAACAUGAGGAUCACCCAUGUAAAGAAAAGAAAAAUGGGAGAAGGGUCAAAAUAAGA [Mat - Same State 2 - JL mod - D59] | 20.4 nM | 56.3 nM |
| AACUACAUUAUGAAGGAUAUCCACAUCUAGACAUGAGGAUCACCCAUGUAUACUUAGAUCAUACAGGAGAAGGUCAAGGGUGAUU [JR_SS002_Sub1208] | 172 nM | 131 nM |
| AAACCACAUGAGGAUCACCCAUGUCAAGAGAGACUAGGAUAUCUGAAUUAAUUAAAUUAAGGAGAAGGAGUGAAAA [71%, Same state of confusion2, 3] | 52.8 nM | 179 nM |
| AAAAAACAUGAGGAUCACCCAUGUAAAAAAAAUGGAGGAUAUUGGAAAAAAAAAAAAAAACGAGAAGGCUAAAAAA [quick and simple] | 44.4 nM | 50.4 nM |
| CUGGACCUAGGAUAGGAUAUGUGAAUAAUUACAUGAGGAUCACCCAUGUCCAUUUAUAUGGGAACAUAGAAGGGUUCUGGUUAAG [Mat - Same state - Malcolm Mod - D146] | 42.2 nM | 66.1 nM |
| AAGAAACAUGAGGAUCACCCAUGUAAGAUAAACACAGGAUAUGCGAAAAGAAACAAAGAAGCAGAAGGGUGAAGAA [Ex5 sub 1] | 17 nM | 35.7 nM |
| CGGGAAGAGAGAGAGGAUAUCCAAAGGAAAACAUGAGGAUCACCCAUGUAGAAGGUAGGAAAUUGGGAGAAGGCUCAAGAGAGAG [salish99-ss2-134] | 37.2 nM | 33.7 nM |
| GAGGACCUAGGAUAGGAUAUAUGAAUAAUUACAUGAGGAUCACCCAUGUCCAUUUAUAUGGGAACAUAGAAGGGUUGUGGUUAUC [SameState2 Malc#36] | 147 nM | 178 nM |
